From US20250084158A1

Tests used:
[1] = biological target: human CLL-1 on cells (human) (UniProt Q5QGZ9); assay: FACS (PE-anti-human IgG), U937 cells
[2] = biological target: human CLL-1 on cells (human) (UniProt Q5QGZ9); assay: FACS (PE-anti-human IgG), HL-60 cells
[3] = biological target: human CLL-1 on cells (human) (UniProt Q5QGZ9); assay: cell-based or functional assay

human CLL-1 on cells (human), sequence (Q5QGZ9 whole entry): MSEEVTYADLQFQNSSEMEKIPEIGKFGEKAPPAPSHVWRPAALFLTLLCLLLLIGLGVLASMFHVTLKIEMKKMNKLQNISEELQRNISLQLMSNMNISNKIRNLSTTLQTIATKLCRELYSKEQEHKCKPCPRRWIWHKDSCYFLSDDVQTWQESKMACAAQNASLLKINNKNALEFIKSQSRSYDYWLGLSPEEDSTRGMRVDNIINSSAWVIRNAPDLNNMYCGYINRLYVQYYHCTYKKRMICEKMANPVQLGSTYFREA

EC50 [1]: 4.53 nM
EC50 [2]: 35.1 nM
CD25 on CD4 T cells, HL60 targets, EC50 [3]: 7.12 nM
CD25 on CD4 T cells, U937 targets, EC50 [3]: 2.53 nM
CD25 on CD8 T cells, HL60 targets, EC50 [3]: 7.68 nM
CD25 on CD8 T cells, U937 targets, EC50 [3]: 2.88 nM
CD69 on CD4 T cells, HL60 targets, EC50 [3]: 2.33 nM
CD69 on CD4 T cells, U937 targets, EC50 [3]: 1.19 nM
CD69 on CD8 T cells, HL60 targets, EC50 [3]: 2.89 nM
CD69 on CD8 T cells, U937 targets, EC50 [3]: 0.713 nM
U937 cell lysis, EC50 [3]: 0.128 nM
Substance: MCLA-117 (bispecific antibody)
